Assay results as given in patent US20230192797A1 (published 2023).

Columns and labels:
[1] = target: T1, PD-L1 on the surface of CHO-PD-L1 cells (UniProt Q9NZQ7 19-290, limits assumed); assay: cell-based or functional assay
[2] = target: T2, cynomolgus monkey PD-L1-His protein (Sino Biological, Cat. 90251-C08H) (cynomolgus monkey, UniProt G7PSE7 19-239); assay: SPR (Biacore T200), antibody captured on the chip, PD-L1-His injected, 1:1 model, 25 C
T2 construct: Bought reagent; also called cynomolgus PD-L1 recombinant protein; not shown: His tag

[3] = target: T3, recombinant human PD-L1-His protein (Novoprotein, Cat. 315) (human, UniProt Q9NZQ7 19-239); assay: as above
T3 construct: Bought reagent; also called human PD-L1 recombinant protein; not shown: His tag

[4] = target: T4, Human PD-L1 recombinant protein (Sino Biological, Cat.10084-H05H) (human, UniProt Q9NZQ7 19-239); assay: competitive ELISA: human PD-L1 coated, antibody titrated against human PD-1-His (competitor), anti-His-HRP detection
T4 construct: also called human PD-L1 protein; PD-L1 protein
Method: Human PD-L1 recombinant protein (Sino Biological, Cat.10084-H05H) was diluted with carbonate buffer and added to 96-well ELISA plate at a final concentration of 1 μg/ml. […] The competitive binding curve of the tested antibody could be drawn by matching the antibody concentration to the OD value, and the IC50 value could be calculated.

[5] = target: T1, PD-L1 on the surface of CHO-PD-L1 cells; assay: flow cytometry (FACS) on CHO-PD-L1 cells, anti-human IgG PE detection

T1 sequence (Q9NZQ7 19-290 limits assumed): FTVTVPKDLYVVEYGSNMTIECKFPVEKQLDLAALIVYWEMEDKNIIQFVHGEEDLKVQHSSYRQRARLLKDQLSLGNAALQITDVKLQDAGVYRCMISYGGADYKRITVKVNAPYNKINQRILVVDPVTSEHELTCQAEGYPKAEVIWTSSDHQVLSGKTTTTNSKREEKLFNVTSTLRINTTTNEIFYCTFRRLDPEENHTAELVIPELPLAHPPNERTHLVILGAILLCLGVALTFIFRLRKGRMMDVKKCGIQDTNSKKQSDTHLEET
T4 sequence (Q9NZQ7 19-239 limits assumed): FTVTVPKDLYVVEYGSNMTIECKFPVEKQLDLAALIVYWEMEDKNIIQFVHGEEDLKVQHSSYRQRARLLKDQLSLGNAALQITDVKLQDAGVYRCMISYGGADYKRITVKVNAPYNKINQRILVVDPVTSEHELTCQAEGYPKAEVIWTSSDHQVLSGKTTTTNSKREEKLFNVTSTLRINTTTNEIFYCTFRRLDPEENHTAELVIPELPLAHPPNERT
T3 sequence (Q9NZQ7 19-239 limits assumed): as above
T2 sequence (G7PSE7 entry or part of it C08H C08H): as the sequence (Q9NZQ7 19-239 limits assumed) above, with A33T, A34S, S62N, R68Q, Q82R, F173L, T185A, T192I, H215L counted along it

- EC50 of NFAT-controlled luminescent reporter signal (RLU), Jurkat-PD-1 cells co-incubated with CHO-PD-L1 cells [1]: 0.166 µg/mL
- Kd [2]: 0.937 nM
- Kd [3]: 1.79 nM
- IC50 [4]: 0.849 nM
- EC50 [5]: 0.0384 µg/mL
B1: 794-h1-71 (antibody, human IgG1, kappa, V domains shown)
VH: QVQLQQSGPGLVKPSQTLSLTCAVSGDSITSGYWNWIRKFPSRGLEYMGYISYSGSTYYNPFLKSRISINRDTSKNQYYLQLNSVTPEDTAVYYCAKMGDWLAWFAYWGQGTLVTVSS
VL: EIVMTQSPPTLSLSPGERVTLSCKSSQSLLYSSNQKNSLAWYQQKPGQAPRLLIYWASTRESGIPARFSGSGSGTDFTLTISSLQPEDFAVYYCQQYYGYPYTFGQGTKLEIKR
notes: also called humanized PD-L1 antibody
